Test results as given in patent US20260263521A1 (AIMED BIO, published 2026).

T1: human CD200R1 expressed on cells (Jurkat-CD200R1, U937-CD200R1, HH cells) (human, UniProt Q8TD46 25-348)
T1 construct: whole, on cells; also called HH (CRL-2105); cell surface-expressed CD200R1
T1 sequence (looked up): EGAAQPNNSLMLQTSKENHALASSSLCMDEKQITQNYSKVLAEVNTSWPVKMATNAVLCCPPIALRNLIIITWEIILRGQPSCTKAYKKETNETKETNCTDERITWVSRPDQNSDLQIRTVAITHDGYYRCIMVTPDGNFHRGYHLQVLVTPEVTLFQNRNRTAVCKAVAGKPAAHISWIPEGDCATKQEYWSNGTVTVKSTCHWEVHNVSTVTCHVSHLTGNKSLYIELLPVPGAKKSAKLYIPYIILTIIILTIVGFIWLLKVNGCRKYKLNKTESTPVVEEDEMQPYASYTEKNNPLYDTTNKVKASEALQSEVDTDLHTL

T2: mouse CD200R1 protein (R&D systems, 2554-CD) (mouse, UniProt Q9ES57 26-238, limits assumed)
T2 construct: Bought; construct not described
T2 sequence (looked up): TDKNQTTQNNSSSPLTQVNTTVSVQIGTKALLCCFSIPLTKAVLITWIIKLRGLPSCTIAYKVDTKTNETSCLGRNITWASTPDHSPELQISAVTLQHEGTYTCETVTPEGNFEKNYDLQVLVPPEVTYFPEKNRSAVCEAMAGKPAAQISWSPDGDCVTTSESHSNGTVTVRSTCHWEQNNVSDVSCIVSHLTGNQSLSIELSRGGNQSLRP

T3: recombinant human CD200R1 Fc chimera protein, CF (R&D systems, 3414-CD) (human, UniProt Q8TD46 27-266)
T3 construct: Bought; also called CD200R1-Fc protein; human CD200R1 Fc protein; Fc part of the bought chimera not given
T3 sequence (looked up): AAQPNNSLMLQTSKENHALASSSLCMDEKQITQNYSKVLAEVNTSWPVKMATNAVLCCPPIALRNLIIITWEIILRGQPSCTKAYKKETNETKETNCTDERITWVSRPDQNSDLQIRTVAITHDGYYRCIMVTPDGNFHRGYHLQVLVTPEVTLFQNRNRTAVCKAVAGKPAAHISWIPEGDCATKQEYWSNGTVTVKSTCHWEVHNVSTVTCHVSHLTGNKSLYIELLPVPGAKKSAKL

T4: human CD200RLa (Sino Biological, 11620-H08H) recombinant protein (human, UniProt Q6Q8B3 24-239)
T4 construct: Bought; construct not described
T4 sequence (looked up): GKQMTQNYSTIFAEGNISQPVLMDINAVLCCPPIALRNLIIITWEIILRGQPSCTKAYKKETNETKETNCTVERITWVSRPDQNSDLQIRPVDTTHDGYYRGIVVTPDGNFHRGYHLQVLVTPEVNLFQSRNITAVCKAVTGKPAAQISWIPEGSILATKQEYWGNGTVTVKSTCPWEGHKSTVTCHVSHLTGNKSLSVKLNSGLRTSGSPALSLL

T5: Hybrid CD200R1 MH (mouse;human, UniProt Q9ES57;Q8TD46)
T5 construct: single domain; mouse D1 over human D2; also called MH hybrid domain; P001 MH domain
T5 sequence (hybrid extracellular part, looked up): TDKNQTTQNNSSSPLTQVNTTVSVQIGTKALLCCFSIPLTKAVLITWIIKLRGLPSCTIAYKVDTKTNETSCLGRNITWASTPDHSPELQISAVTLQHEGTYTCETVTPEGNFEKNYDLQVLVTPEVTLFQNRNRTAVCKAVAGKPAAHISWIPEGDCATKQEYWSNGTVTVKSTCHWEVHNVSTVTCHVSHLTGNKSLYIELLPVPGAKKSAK


What was measured:
[1] = target: T1, human CD200R1 expressed on cells …; experiment: flow cytometry on Jurkat-CD200R1 and HH cells, 500 nM antibody in IgG1 form
Outline: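 Cells at 1×10⁵ per well incubated with antibody 1 h at 4 °C, then Alexa-647 anti-human IgG (H+L) secondary for 30 min at 4 °C. After two washes, binding read by flow cytometry.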

[2] = target: T2, mouse CD200R1 protein (R&D systems, …); experiment: ELISA, plate-bound mouse CD200R1 (2 ug/mL), IgG 0.0192-300 nM, OD 450 nm; panel 'mouse CD200R1'
Outline: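 Wells coated with antigen at 2 μg/mL (4 °C, 16 h) and blocked with 3% skim milk before IgG addition. Bound antibody developed with TMB, reaction stopped, absorbance read at 450 nm.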

[3] = target: T3, recombinant human CD200R1 Fc chimera …; experiment: competition ELISA: antibody on coated human CD200R1-Fc, competitor rhCD200-Fc at 1 µg/mL, bound CD200 detected
Experimental: 96-well plates were coated with human CD200R1 (R&D systems, 3414-CD) recombinant protein at a concentration of 2 μg/mL at 4° C. for 16 hours, and blocked with 3% skim milk for 1 hour. […] The result was washed with PBST and distilled water, and the samples were bound with Pierce™ High Sensitivity Streptavidin-HRP (Thermo Scientific, 21130) at room temperature for 1 hour, and then washed again with PBST and distilled water. TMB substrate solution (Thermo Scientific, 34029, 1-Step™ Ultra TMB-ELISA substrate solution) was added to develop the color. The reaction was stopped with stop solution (Invitrogen, SS04, ELISA Stop Solution).

[4] = target: T4, human CD200RLa (Sino Biological, …); experiment: ELISA, plate-bound human CD200RLa (2 ug/mL), antibody 0.0192-300 nM, O.D 450 nm; panel 'recombinant human CD200RLa'
Outline: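 Plates coated overnight (16 h, 4° C) with human or cynomolgus CD200RLa recombinant protein, blocked with 3% skim milk; bound antibody detected by TMB colour development, reaction stopped before reading.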

[5] = target: T3, recombinant human CD200R1 Fc chimera …; experiment: ELISA, plate-bound human CD200R1-Fc (2 ug/mL), IgG 0.0192-300 nM, anti-human IgG F(ab')2-HRP, OD 450 nm; panel 'human CD200R1'
Experimental: 96-well plates were coated with human CD200R1 (R&D systems, 3414-CD) and mouse CD200R1 protein (R&D systems, 2554-CD) at a concentration of 2 μg/mL at 4° C. for 16 hours and then were blocked with 3% skim milk.
Color was developed with a TMB substrate solution (Thermo Scientific, 34029, 1-Step™ TMB-ELISA Ultra Substrate Solution). The color reaction was stopped with stop solution (Invitrogen, SS04, ELISA Stop Solution). The absorbance was measured at an optical density of 450 nm.

Hybrid CD200R1 MH = target: T5, Hybrid CD200R1 MH; experiment: ELISA, plate-bound MH hybrid (1 ug/mL), antibody 0.0192-300 nM, O.D 450 nm; panel 'P001 MH domain-3)'
Experimental: Recombinant proteins were produced from the extracellular Ig-like V-type domain and Ig-like C2-type domain of human CD200R1, each designed as human-mouse (HM hybrid domain) and mouse-human (MH hybrid domain) recombinant proteins. A 96-well plate was coated at a concentration of 1 μg/mL with each protein at 4° C. for 16 hours and blocked with 3% skim milk. […] After color development with TMB substrate solution (Thermo Scientific, 34029, 1-Step™ Ultra TMB-ELISA Substrate Solution), the color reaction was stopped with a stop solution (Invitrogen, SS04, ELISA Stop Solution), and the absorbance was measured at an O.D. of 450 nm.

| binding result [2] | binding result [4] | Binder | MFI normalized to P001017 (chimeric OX108), % [1] | IC50 [3] | EC50 (read off the curve) [5] | binding result (Hybrid CD200R1 MH) |
| --- | --- | --- | --- | --- | --- | --- |
| no binding (tested: 300 nM) | no binding (tested: 300 nM) | P001002 (IgG) (antibody, V domains shown) VH: EVQLLESGGGLVQPGGSLRLSCAASGFTFSSYAMSWVRQAPGKGLEWVSWISYDSSSKYYADSVKGRFTISRDNSKNTLYLQMNSLRAEDTAVYYCARGVVQPYLWTEFDYWGQGTLVTVSS VL: QSVLTQPPSASGTPGQRVTISCSGSSSNIGSNYVNWYQQLPGTAPKLLIYSDSHRPSGVPDRFSGSKSGTSASLAISGLRSEDEADYYCGSWDDSLSGYVFGGGTKLTVL | > 50% | 11.5 nM | ~0.8 nM |  |
| no binding (tested: 300 nM) | no binding (tested: 300 nM) | P001012 (IgG) (antibody, V domains shown) VH: EVQLLESGGGLVQPGGSLRLSCAASGFTFSGYDMSWVRQAPGKGLEWVSGISSSGGNKYYADSVKGRFTISRDNSKNTLYLQMNSLRAEDTAVYYCARAIRPCISAPCYYDDAMDVWGQGTLVTVSS VL: QSVLTQPPSASGTPGQRVTISCTGSSSNIGSNYVSWYRQLPGTAPKLLIYSDSQRPSGVPDRFSGSKSGTSASLAISGLRSEDEADYYCGSWDYSLSAYVFGGGTKLTVL |  |  |  | no binding (tested: 300 nM) |
